The source of these data is US12570750B2, “Antibodies that bind adenosine A2A receptors and methods of use thereof to treat cancer and neurological diseases” (Twist Bioscience Corporation, priority 2019, dated 2026).

This assay deals with adenosine A2A receptor (Homo sapiens, UniProt P29274). The assay is described as follows: LANCE allosteric cAMP assay: titrated IgG, then fixed NECA concentration. Conditions: Table 12. Format: cell-based. As for the experimental part: A2A-1 and A2A-9 were assayed for allosteric modulation.
A2A-9 was assayed as described in Example 16.
(In general: TR-FRET usually uses a lanthanide donor and a delayed reading to cut background.)

adenosine A2A receptor, sequence (P29274 whole entry): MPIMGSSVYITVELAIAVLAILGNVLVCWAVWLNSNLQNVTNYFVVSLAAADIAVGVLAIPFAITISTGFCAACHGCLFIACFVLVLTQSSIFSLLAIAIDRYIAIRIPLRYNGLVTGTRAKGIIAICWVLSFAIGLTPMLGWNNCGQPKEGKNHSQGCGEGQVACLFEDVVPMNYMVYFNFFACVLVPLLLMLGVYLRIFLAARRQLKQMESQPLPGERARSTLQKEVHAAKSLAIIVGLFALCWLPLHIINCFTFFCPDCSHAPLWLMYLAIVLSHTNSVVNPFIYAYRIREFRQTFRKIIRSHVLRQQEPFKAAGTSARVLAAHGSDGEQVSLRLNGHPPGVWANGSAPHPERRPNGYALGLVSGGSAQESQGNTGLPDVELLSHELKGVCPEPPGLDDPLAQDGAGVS

B1: A2A-9: A2AR variant immunoglobulin, CDRH1-3 SEQ ID NOs 14/103/192 (antibody, V domains shown)
VH: EVQLQQSGPGLVKPSQSLSLTCSVTGYSITSGYYWNWIRQFPGKKLEWMGYIRYDGSNNYNPSLKNRISITRDTSKNQFFLKLNSVTTDDTATYYCARVHHYYGSSYFDYWGQGTTLTVSS
VL: DIVMTQSQKFMSTSVGDRVSATCKASQNVGSSVAWFQQKPGQSPKALIYSTSYRYSGVPDRFTGSGSGTDFTLTISNVQSEDLAEYFCQQYNSYPLTFGAGTKLEIK
In the case of B1, the “Functional classification, Example 18” value is given as “antagonist”.
